Non-standard residues stand in square brackets, D forms with d. No end group written: not given here. *: point of attachment. 4‑guanidinomethylbenzoyl = N=C(N)NCc1ccc(C(=O)*)cc1; Phe(3-F) = N[C@@H](Cc1cccc(F)c1)C(=O)O; Phe(3-Me) = Cc1cccc(C[C@H](N)C(=O)O)c1; Phe(2-Me) = Cc1ccccc1C[C@H](N)C(=O)O; Cha = N[C@@H](CC1CCCCC1)C(=O)O; 4Amb = NCc1ccc(C(=O)O)cc1; Aib = CC(C)(N)C(=O)O
T1: human Y2 receptor (human, UniProt P49146 1-381)
T1 sequence (looked up): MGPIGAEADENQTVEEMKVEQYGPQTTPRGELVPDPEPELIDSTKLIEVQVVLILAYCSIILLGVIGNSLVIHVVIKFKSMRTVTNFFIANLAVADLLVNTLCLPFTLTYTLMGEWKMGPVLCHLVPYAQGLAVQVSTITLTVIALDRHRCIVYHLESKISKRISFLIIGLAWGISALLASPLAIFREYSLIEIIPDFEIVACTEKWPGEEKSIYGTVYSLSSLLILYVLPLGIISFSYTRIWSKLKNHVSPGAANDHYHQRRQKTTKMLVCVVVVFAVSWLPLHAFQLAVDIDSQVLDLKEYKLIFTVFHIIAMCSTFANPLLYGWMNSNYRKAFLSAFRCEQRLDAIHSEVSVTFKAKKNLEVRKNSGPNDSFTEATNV


Assays:
human Y2 receptor [1] = biological target: T1, human Y2 receptor; assay: cell-based or functional assay
human Y2 receptor [2] = biological target: T1, human Y2 receptor; assay: RBA: [125I]-PYY displacement, hY2R/CHO membranes
Procedure, shortened: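 Bound radioligand was collected by filtration on PEI-treated GF/C filters, washed with Tris/MgCl₂/NaCl/CHAPS buffer pH 7.4, and counted by scintillation; IC₅₀ values were calculated.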

Binder	GBA EC50 Ratio (vs PYY(3-36)), [35S]GTPγS (human Y2 receptor [1])	IC50 Ratio (vs PYY(3-36)) (human Y2 receptor [2])
{4‑guanidinomethylbenzoyl}-RAYINLITRQRY-NH2 (SMILES CC[C@H](C)[C@H](NC(=O)[C@H](Cc1ccc(O)cc1)NC(=O)[C@H](C)NC(=O)[C@H](CCCNC(=N)N)NC(=O)c1ccc(CNC(=N)N)cc1)C(=O)N[C@@H](CC(N)=O)C(=O)N[C@@H](CC(C)C)C(=O)N[C@H](C(=O)N[C@H](C(=O)N[C@@H](CCCNC(=N)N)C(=O)N[C@@H](CCC(N)=O)C(=O)N[C@@H](CCCNC(=N)N)C(=O)N[C@@H](Cc1ccc(O)cc1)C(N)=O)[C@@H](C)O)[C@@H](C)CC, also called compound No. 4) [4-Guanidinomethylbenzoyl-[Ala26, Ile28,31]-PYY(25-36)]	1.1 ratio	2.4 ratio
[4Amb]RAYINLISRQRY-NH2 (N-terminus assumed; SMILES CC[C@H](C)[C@H](NC(=O)[C@H](Cc1ccc(O)cc1)NC(=O)[C@H](C)NC(=O)[C@H](CCCNC(=N)N)NC(=O)c1ccc(CN)cc1)C(=O)N[C@@H](CC(N)=O)C(=O)N[C@@H](CC(C)C)C(=O)N[C@H](C(=O)N[C@@H](CO)C(=O)N[C@@H](CCCNC(=N)N)C(=O)N[C@@H](CCC(N)=O)C(=O)N[C@@H](CCCNC(=N)N)C(=O)N[C@@H](Cc1ccc(O)cc1)C(N)=O)[C@@H](C)CC, also called compound No. 60) [4-Aminomethylbenzoyl-[Ala26, Ile28,31, Ser32]-PYY(25-36)]	44 ratio	180 ratio
[4Amb]RAQINLITRQRY-NH2 (N-terminus assumed; SMILES CC[C@H](C)[C@H](NC(=O)[C@H](CCC(N)=O)NC(=O)[C@H](C)NC(=O)[C@H](CCCNC(=N)N)NC(=O)c1ccc(CN)cc1)C(=O)N[C@@H](CC(N)=O)C(=O)N[C@@H](CC(C)C)C(=O)N[C@H](C(=O)N[C@H](C(=O)N[C@@H](CCCNC(=N)N)C(=O)N[C@@H](CCC(N)=O)C(=O)N[C@@H](CCCNC(=N)N)C(=O)N[C@@H](Cc1ccc(O)cc1)C(N)=O)[C@@H](C)O)[C@@H](C)CC, also called compound No. 30) [4-Aminomethylbenzoyl-[Ala26, Gln27, Ile28,31]-PYY(25-36)]	14 ratio	25 ratio
[4Amb]RAYINFITRQRY-NH2 (N-terminus assumed; SMILES CC[C@H](C)[C@H](NC(=O)[C@H](Cc1ccc(O)cc1)NC(=O)[C@H](C)NC(=O)[C@H](CCCNC(=N)N)NC(=O)c1ccc(CN)cc1)C(=O)N[C@@H](CC(N)=O)C(=O)N[C@@H](Cc1ccccc1)C(=O)N[C@H](C(=O)N[C@H](C(=O)N[C@@H](CCCNC(=N)N)C(=O)N[C@@H](CCC(N)=O)C(=O)N[C@@H](CCCNC(=N)N)C(=O)N[C@@H](Cc1ccc(O)cc1)C(N)=O)[C@@H](C)O)[C@@H](C)CC, also called compound No. 54) [4-Aminomethylbenzoyl-[Ala26, Ile28,31, Phe30]-PYY(25-36)]	3.4 ratio	5.7 ratio
[4Amb]RAYINAITRQRY-NH2 (N-terminus assumed; SMILES CC[C@H](C)[C@H](NC(=O)[C@H](C)NC(=O)[C@H](CC(N)=O)NC(=O)[C@@H](NC(=O)[C@H](Cc1ccc(O)cc1)NC(=O)[C@H](C)NC(=O)[C@H](CCCNC(=N)N)NC(=O)c1ccc(CN)cc1)[C@@H](C)CC)C(=O)N[C@H](C(=O)N[C@@H](CCCNC(=N)N)C(=O)N[C@@H](CCC(N)=O)C(=O)N[C@@H](CCCNC(=N)N)C(=O)N[C@@H](Cc1ccc(O)cc1)C(N)=O)[C@@H](C)O, also called compound No. 32) [4-Aminomethylbenzoyl-[Ala26,30, Ile28,31]-PYY(25-36)]	7.4 ratio	9.1 ratio
[4Amb]RAYANLITRQRY-NH2 (N-terminus assumed; SMILES CC[C@H](C)[C@H](NC(=O)[C@H](CC(C)C)NC(=O)[C@H](CC(N)=O)NC(=O)[C@H](C)NC(=O)[C@H](Cc1ccc(O)cc1)NC(=O)[C@H](C)NC(=O)[C@H](CCCNC(=N)N)NC(=O)c1ccc(CN)cc1)C(=O)N[C@H](C(=O)N[C@@H](CCCNC(=N)N)C(=O)N[C@@H](CCC(N)=O)C(=O)N[C@@H](CCCNC(=N)N)C(=O)N[C@@H](Cc1ccc(O)cc1)C(N)=O)[C@@H](C)O, also called compound No. 31) [4-Aminomethylbenzoyl-[Ala26,28, Ile31]-PYY(25-36)]	29 ratio	42 ratio
[4Amb]RAYINLILRQRY-NH2 (N-terminus assumed; SMILES CC[C@H](C)[C@H](NC(=O)[C@H](Cc1ccc(O)cc1)NC(=O)[C@H](C)NC(=O)[C@H](CCCNC(=N)N)NC(=O)c1ccc(CN)cc1)C(=O)N[C@@H](CC(N)=O)C(=O)N[C@@H](CC(C)C)C(=O)N[C@H](C(=O)N[C@@H](CC(C)C)C(=O)N[C@@H](CCCNC(=N)N)C(=O)N[C@@H](CCC(N)=O)C(=O)N[C@@H](CCCNC(=N)N)C(=O)N[C@@H](Cc1ccc(O)cc1)C(N)=O)[C@@H](C)CC, also called compound No. 62) [4-Aminomethylbenzoyl-[Ala26, Ile28,31, Leu32]-PYY(25-36)]	15 ratio	18 ratio
[4Amb]RAYINLITRQRF-NH2 (N-terminus assumed; SMILES CC[C@H](C)[C@H](NC(=O)[C@H](Cc1ccc(O)cc1)NC(=O)[C@H](C)NC(=O)[C@H](CCCNC(=N)N)NC(=O)c1ccc(CN)cc1)C(=O)N[C@@H](CC(N)=O)C(=O)N[C@@H](CC(C)C)C(=O)N[C@H](C(=O)N[C@H](C(=O)N[C@@H](CCCNC(=N)N)C(=O)N[C@@H](CCC(N)=O)C(=O)N[C@@H](CCCNC(=N)N)C(=O)N[C@@H](Cc1ccccc1)C(N)=O)[C@@H](C)O)[C@@H](C)CC, also called compound No. 6) [4-Aminomethylbenzoyl-[Ala26, Ile28,31, Phe36]-PYY(25-36)]	5.9 ratio	5.1 ratio
[4Amb]RAYINGITRQRY-NH2 (N-terminus assumed; SMILES CC[C@H](C)[C@H](NC(=O)CNC(=O)[C@H](CC(N)=O)NC(=O)[C@@H](NC(=O)[C@H](Cc1ccc(O)cc1)NC(=O)[C@H](C)NC(=O)[C@H](CCCNC(=N)N)NC(=O)c1ccc(CN)cc1)[C@@H](C)CC)C(=O)N[C@H](C(=O)N[C@@H](CCCNC(=N)N)C(=O)N[C@@H](CCC(N)=O)C(=O)N[C@@H](CCCNC(=N)N)C(=O)N[C@@H](Cc1ccc(O)cc1)C(N)=O)[C@@H](C)O, also called compound No. 45) [4-Aminomethylbenzoyl-[Ala26, Ile28,31, Gly30]-PYY(25-36)]	12 ratio	21 ratio
[4Amb]RAYINLATRQRY-NH2 (N-terminus assumed; SMILES CC[C@H](C)[C@H](NC(=O)[C@H](Cc1ccc(O)cc1)NC(=O)[C@H](C)NC(=O)[C@H](CCCNC(=N)N)NC(=O)c1ccc(CN)cc1)C(=O)N[C@@H](CC(N)=O)C(=O)N[C@@H](CC(C)C)C(=O)N[C@@H](C)C(=O)N[C@H](C(=O)N[C@@H](CCCNC(=N)N)C(=O)N[C@@H](CCC(N)=O)C(=O)N[C@@H](CCCNC(=N)N)C(=O)N[C@@H](Cc1ccc(O)cc1)C(N)=O)[C@@H](C)O, also called compound No. 33) [4-Aminomethylbenzoyl-[Ala26,31, Ile28]-PYY(25-36)]	17 ratio	23 ratio
[4Amb]RARINLITRQRY-NH2 (N-terminus assumed; SMILES CC[C@H](C)[C@H](NC(=O)[C@H](CCCNC(=N)N)NC(=O)[C@H](C)NC(=O)[C@H](CCCNC(=N)N)NC(=O)c1ccc(CN)cc1)C(=O)N[C@@H](CC(N)=O)C(=O)N[C@@H](CC(C)C)C(=O)N[C@H](C(=O)N[C@H](C(=O)N[C@@H](CCCNC(=N)N)C(=O)N[C@@H](CCC(N)=O)C(=O)N[C@@H](CCCNC(=N)N)C(=O)N[C@@H](Cc1ccc(O)cc1)C(N)=O)[C@@H](C)O)[C@@H](C)CC, also called compound No. 29) [4-Aminomethylbenzoyl-[Ala26, Arg27, Ile28,31]-PYY(25-36)]	4.3 ratio	6.8 ratio
Ac-S[dP]RH[Cha][Cha]NL[Aib]TRQR[Phe(3-F)]-NH2 (SMILES CC(=O)N[C@@H](CO)C(=O)N1CCC[C@@H]1C(=O)N[C@@H](CCCNC(=N)N)C(=O)N[C@@H](Cc1c[nH]cn1)C(=O)N[C@@H](CC1CCCCC1)C(=O)N[C@@H](CC1CCCCC1)C(=O)N[C@@H](CC(N)=O)C(=O)N[C@@H](CC(C)C)C(=O)NC(C)(C)C(=O)N[C@H](C(=O)N[C@@H](CCCNC(=N)N)C(=O)N[C@@H](CCC(N)=O)C(=O)N[C@@H](CCCNC(=N)N)C(=O)N[C@@H](Cc1cccc(F)c1)C(N)=O)[C@@H](C)O, also called compound No. 195) [Ac-[D-Pro24, Cha27,28, Aib31, Phe(3F)36]-PYY(23-36)]	1.5 ratio	2.1 ratio
Ac-S[dP]RH[Cha][Cha]NL[Aib]TRQR[Phe(3-Me)]-NH2 (SMILES CC(=O)N[C@@H](CO)C(=O)N1CCC[C@@H]1C(=O)N[C@@H](CCCNC(=N)N)C(=O)N[C@@H](Cc1c[nH]cn1)C(=O)N[C@@H](CC1CCCCC1)C(=O)N[C@@H](CC1CCCCC1)C(=O)N[C@@H](CC(N)=O)C(=O)N[C@@H](CC(C)C)C(=O)NC(C)(C)C(=O)N[C@H](C(=O)N[C@@H](CCCNC(=N)N)C(=O)N[C@@H](CCC(N)=O)C(=O)N[C@@H](CCCNC(=N)N)C(=O)N[C@@H](Cc1cccc(C)c1)C(N)=O)[C@@H](C)O, also called compound No. 197) [Ac-[D-Pro24, Cha27,28, Aib31, Phe(3Me)36]-PYY(23-36)]	1.9 ratio	1.3 ratio
Ac-S[dP]RH[Cha][Cha]NL[Aib]TRQR[Phe(2-Me)]-NH2 (SMILES CC(=O)N[C@@H](CO)C(=O)N1CCC[C@@H]1C(=O)N[C@@H](CCCNC(=N)N)C(=O)N[C@@H](Cc1c[nH]cn1)C(=O)N[C@@H](CC1CCCCC1)C(=O)N[C@@H](CC1CCCCC1)C(=O)N[C@@H](CC(N)=O)C(=O)N[C@@H](CC(C)C)C(=O)NC(C)(C)C(=O)N[C@H](C(=O)N[C@@H](CCCNC(=N)N)C(=O)N[C@@H](CCC(N)=O)C(=O)N[C@@H](CCCNC(=N)N)C(=O)N[C@@H](Cc1ccccc1C)C(N)=O)[C@@H](C)O, also called compound No. 196) [Ac-[D-Pro24, Cha27,28, Aib31, Phe(2Me)36]-PYY(23-36)]	1.6 ratio	1.6 ratio

— patent publication US20120172293A1 (Takeda / Millennium, published 2012)
